According to patent publication US20240239893A1, “METHODS AND COMBINATIONS FOR THE TREATMENT OF CANCER USING IMMUNE CHECKPOINT INHIBITOR ANTIBODIES” (AstraZeneca AB, priority 2020, published 2024):

B1: tremelimumab: anti-CTLA-4 antibody; in Example 2 given as 750 mg monotherapy Q4W for seven doses then Q12W (T) (antibody)
VH: GVVQPGRSLRLSCAASGFTFSSYGMHWVRQAPGKGLEWVAVIWYDGSNKYYADSVKGRFTISRDNSKNTLYLQMNSLRAEDTAVYYCARDPRGATLYYYYYGMDVWGQGTTVTVSSASTKGPSVFPLAPCSRSTSESTAALGCLVKDYFPEPVTVSWNSGALTSGVH
VL: PSSLSASVGDRVTITCRASQSINSYLDWYQQKPGKAPKLLIYAASSLQSGVPSRFSGSGSGTDFTLTISSLQPEDFATYYCQQYYSTPFTFGPGTKVEIKRTVAAPSVFIFPPSDEQLKSGTASVVCLLNNFYPREAKV
modifications: heavy chain variable region; light chain variable region

Key:
[1] = system: advanced hepatocellular carcinoma (HCC); assay: Randomized open-label multi-center clinical study of durvalumab and tremelimumab (Example 2): efficacy (ORR, OS, PFS); type: in vivo, human patients; settings: for ORR, % / Median (95% CI) OS, mo: Table 1, per study arm; for Median (95% CI) OS, mo: 95% CI given; for Median PFS (95% CI): patients with advanced HCC, Kaplan-Meier (FIG. 11)
Text: Primary analysis of all tumor assessment-related endpoints was based on BICR assessments according to RECIST v1.1.
Evaluation of target lesions were classified as follows: • Complete Response—Disappearance of all target lesions. Any pathological lymph nodes (whether target or non-target) must have reduction in short axis to <10 mm (the sum may not be “0” if there are target nodes). • Partial Response—At least a 30% decrease in the sum of the diameters of target lesions, taking as reference the baseline sum diameters. • Progressive Disease—At least a 20% increase in the sum of diameters of target lesions, taking as reference the smallest sum on study (this includes the baseline sum if that is the smallest on study). […] (Note: The appearance of one or more new lesions may be considered progression.) • Stable Disease—Neither sufficient shrinkage to qualify for PR nor sufficient increase to qualify for PD, taking as reference the smallest sum of diameters while on study.
The study disclosed below is a randomized, open-label, multi-center, global, clinical study to assess the efficacy and safety of durvalumab monotherapy and durvalumab plus tremelimumab combination therapy versus sorafenib in the treatment of immune checkpoint inhibitor-naïve patients with HCC who progressed on, were intolerant to, or refused sorafenib. In the foregoing disclosure, a flat-dose regimen of 1500 mg (approximately equivalent to 20 mg/kg) of durvalumab plus 300 mg (equivalent to 4 mg/kg) of tremelimumab was used in this study.
The study population included patients 18 years of age or older with advanced HCC, Barcelona Clinic Liver Cancer Stage B (not eligible for locoregional therapy) or stage C, and Child-Pugh A classification liver disease. Patients must not have received any prior systemic therapy for HCC. Patients were stratified according to macrovascular invasion (yes versus no), etiology of liver disease (hepatitis B virus [confirmed HBV] versus hepatitis C virus [confirmed HCV] versus others), and performance status (Eastern Cooperative Oncology Group [ECOG] 0 versus 1).
A total of 332 patients were enrolled (T300+D, n=75; durvalumab, n=104; tremelimumab, n=69; T75+D, n=84). Patients were randomized in an equal ratio to groups treated with durvalumab 1500 mg monotherapy (D), tremelimumab 750 mg monotherapy (T), combination therapy with durvalumab 1500 mg plus tremelimumab 75 mg×4 doses (T75+D) followed by durvalumab Q4W, combination therapy with durvalumab 1500 mg plus tremelimumab 300 mg×1 dose (T 300+D) followed by durvalumab Q4W. Upon closure to further enrollment into the T75+D arm, patients were randomized in an equal ratio to groups treated with D, T300+D, and Sorafenib. Durvalumab and tremelimumab were administered via intravenous (IV) infusion every 4 weeks (Q4W). Sorafenib was administered orally BID (see FIGS. 3 and 4).
(§1) Tremelimumab 750 mg via IV infusion Q4W starting at Week 0 for seven doses and then Q12W until confirmed PD, unacceptable toxicity, or any discontinuation criterion was met. (Note: If a patient's weight decreased to ≤30 kg, the patient received weight-based dosing of tremelimumab 10 mg/kg Q4W, until the weight increased to >30 kg, at which point the patient received the flat dose of tremelimumab 750 mg Q4W).
as §1, with “• Durvalumab 1500” for “Tremelimumab 750”, “0” for “0 for seven doses and then Q12W”, “durvalumab 20” for “tremelimumab 10”, “durvalumab 1500” for “tremelimumab 750”, “Q4W.) […]” for “Q4W).”

[2] = system: peripheral blood T cell receptors (T-cell clones); assay: Molecular analysis of peripheral blood T cell receptors (TCR clonality, immunoSeq) on day 29; type: in vivo, human patients; settings: for Median expanded T cell clones at Day 29, n: Day 29, first cycle of Q4W dosing, immunoSeq paired samples
Text: This trend was not seen with monotherapy D or the lower dose T combination (T75+D) (FIG. 15). Additionally, greater clonal expansion of T-cells was associated with better OS and seen in D+T combination arms (FIG. 16).

[3] = system: proliferating CD8+ Ki67+ T cells; assay: Exposure-response model: tremelimumab trough concentration vs change from baseline of CD8+ Ki67+ T cell counts; type: in vivo, patients with uHCC
Description: (§2) Finally, an exposure-response model was developed to describe the relationship between tremelimumab exposure and proliferating CD8+ Ki67+ T cells in patients with uHCC. Relationships between tremelimumab trough concentration after the first dose (Cmin) and the maximum change from baseline (CFB) for CD8+ Ki67+ T cell counts were evaluated using linear and non-linear regression models. Covariate effects were evaluated on the model intercept and the drug effect (Emax) using a stepwise search approach. The relationship between CD8+Ki67+ T cell count CFB and tremelimumab trough concentration was best described by an Emax model. The only statistically significant and well estimated covariate effect was the baseline CD8+ Ki67+ T cell count on Emax. The maximum effect was higher in patients with lower baseline CD8+ Ki67+ T cell counts and lower in patients with higher baseline CD8+ Ki67+ T cell counts. At the 10th, median, and 90th percentiles of baseline CD8+(3, 9, and 25 cells/uL), the maximum effect is 593%, 341%, and 77.9% change from baseline, respectively.

[4] = Tremelimumab trough concentration after the first dose (Cmin); type: in vivo, patients with uHCC; settings: 300 mg tremelimumab
Description: as §2

Row | Molecule | ORR, % [1] [%] | Median (95% CI) OS, mo [1] [mo] | Median PFS (95% CI) [1] | clonal expansion of T cells in responders compared to non-responders ([2]; Day 29 (FIG. 15)) | Median expanded T cell clones at Day 29, n [2] | maximum effect (Emax), change from baseline of CD8+ Ki67+ T cell count ([3]; 10th percentile of baseline CD8+ (3 cells/uL)) [%] | maximum effect (Emax), change from baseline of CD8+ Ki67+ T cell count ([3]; 90th percentile of baseline CD8+ (25 cells/uL)) [%] | estimated half-maximal effective concentration (EC50) ([3]; Emax model, CD8+Ki67+ T cell count change from baseline vs tremelimumab Cmin) [µg/mL] | maximum effect (Emax), change from baseline of CD8+ Ki67+ T cell count ([3]; median baseline CD8+ (9 cells/uL)) [%] | median Cmin (trough concentration after the first dose) [4] [ng/mL]
1 | durvalumab: human monoclonal antibody directed against human PD-L1; in Example 2 given as 1500 mg monotherapy Q4W (D) | 10.6 | 13.6 | 2.07 (1.84-2.83) months | not seen | 32 (13, 46) | – | – | – | – | –
2 | B1 | 7.2 | 15.1 | 2.69 (1.87-5.29) months | – | 100 (50, 160) | 593 | 77.9 | 5.24 | 341 | 12900
